Results reported in patent US20250262210A1 (TRUSTEES OF COLUMBIA UNIVERSITY IN THE CITY OF NEW YORK, published 2025).

Assays:
Test in all cases: IP/MS, LZTR1 R810W-FLAG, U87
RAPH1 = biological target: T1, RAPH1 (human, UniProt Q70E73 1-1250, limits assumed)
T1 sequence (looked up): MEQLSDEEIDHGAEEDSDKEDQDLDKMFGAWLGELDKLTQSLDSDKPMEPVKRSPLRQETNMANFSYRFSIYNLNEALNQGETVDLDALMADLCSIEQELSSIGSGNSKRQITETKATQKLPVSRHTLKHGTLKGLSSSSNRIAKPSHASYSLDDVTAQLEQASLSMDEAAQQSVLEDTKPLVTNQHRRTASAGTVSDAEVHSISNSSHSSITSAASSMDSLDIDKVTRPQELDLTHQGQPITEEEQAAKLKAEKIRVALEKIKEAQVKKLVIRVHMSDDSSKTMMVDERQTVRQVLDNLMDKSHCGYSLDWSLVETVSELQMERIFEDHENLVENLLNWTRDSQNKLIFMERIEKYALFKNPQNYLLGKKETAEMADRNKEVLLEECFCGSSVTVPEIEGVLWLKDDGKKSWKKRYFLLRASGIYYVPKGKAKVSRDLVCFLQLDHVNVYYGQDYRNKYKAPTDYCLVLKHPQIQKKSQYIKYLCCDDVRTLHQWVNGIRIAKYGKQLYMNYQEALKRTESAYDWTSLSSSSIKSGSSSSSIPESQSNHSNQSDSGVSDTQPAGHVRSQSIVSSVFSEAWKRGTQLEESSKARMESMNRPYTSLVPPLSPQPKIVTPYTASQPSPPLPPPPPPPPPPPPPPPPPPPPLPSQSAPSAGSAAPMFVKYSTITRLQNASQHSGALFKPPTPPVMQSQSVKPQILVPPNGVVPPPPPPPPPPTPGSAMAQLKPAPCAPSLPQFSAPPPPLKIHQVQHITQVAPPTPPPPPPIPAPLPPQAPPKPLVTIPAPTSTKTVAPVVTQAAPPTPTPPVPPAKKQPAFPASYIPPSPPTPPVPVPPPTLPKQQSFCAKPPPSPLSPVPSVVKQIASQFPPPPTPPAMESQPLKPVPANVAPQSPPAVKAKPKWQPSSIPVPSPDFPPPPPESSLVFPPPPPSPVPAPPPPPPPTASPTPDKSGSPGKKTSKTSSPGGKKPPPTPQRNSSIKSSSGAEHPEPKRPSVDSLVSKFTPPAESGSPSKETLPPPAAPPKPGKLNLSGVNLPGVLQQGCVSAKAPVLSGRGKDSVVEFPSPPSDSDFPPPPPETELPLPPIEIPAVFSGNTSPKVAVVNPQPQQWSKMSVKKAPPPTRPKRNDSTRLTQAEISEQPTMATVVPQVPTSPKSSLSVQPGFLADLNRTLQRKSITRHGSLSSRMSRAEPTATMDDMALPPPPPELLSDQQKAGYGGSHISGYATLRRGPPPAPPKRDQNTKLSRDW
In short: (§1)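 Extracted peptides in 3% acetonitrile/0.1% formic acid ran on a 50 cm C18 column into an Orbitrap Fusion, with MaxQuant identification and spectral counting.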

TRIO = TRIO (human, UniProt O75962 1-3097, limits assumed)
In short: as §1

STK11IP = biological target: T2, STK11IP (human, UniProt Q8N1F8 1-1088)
T2 sequence (looked up): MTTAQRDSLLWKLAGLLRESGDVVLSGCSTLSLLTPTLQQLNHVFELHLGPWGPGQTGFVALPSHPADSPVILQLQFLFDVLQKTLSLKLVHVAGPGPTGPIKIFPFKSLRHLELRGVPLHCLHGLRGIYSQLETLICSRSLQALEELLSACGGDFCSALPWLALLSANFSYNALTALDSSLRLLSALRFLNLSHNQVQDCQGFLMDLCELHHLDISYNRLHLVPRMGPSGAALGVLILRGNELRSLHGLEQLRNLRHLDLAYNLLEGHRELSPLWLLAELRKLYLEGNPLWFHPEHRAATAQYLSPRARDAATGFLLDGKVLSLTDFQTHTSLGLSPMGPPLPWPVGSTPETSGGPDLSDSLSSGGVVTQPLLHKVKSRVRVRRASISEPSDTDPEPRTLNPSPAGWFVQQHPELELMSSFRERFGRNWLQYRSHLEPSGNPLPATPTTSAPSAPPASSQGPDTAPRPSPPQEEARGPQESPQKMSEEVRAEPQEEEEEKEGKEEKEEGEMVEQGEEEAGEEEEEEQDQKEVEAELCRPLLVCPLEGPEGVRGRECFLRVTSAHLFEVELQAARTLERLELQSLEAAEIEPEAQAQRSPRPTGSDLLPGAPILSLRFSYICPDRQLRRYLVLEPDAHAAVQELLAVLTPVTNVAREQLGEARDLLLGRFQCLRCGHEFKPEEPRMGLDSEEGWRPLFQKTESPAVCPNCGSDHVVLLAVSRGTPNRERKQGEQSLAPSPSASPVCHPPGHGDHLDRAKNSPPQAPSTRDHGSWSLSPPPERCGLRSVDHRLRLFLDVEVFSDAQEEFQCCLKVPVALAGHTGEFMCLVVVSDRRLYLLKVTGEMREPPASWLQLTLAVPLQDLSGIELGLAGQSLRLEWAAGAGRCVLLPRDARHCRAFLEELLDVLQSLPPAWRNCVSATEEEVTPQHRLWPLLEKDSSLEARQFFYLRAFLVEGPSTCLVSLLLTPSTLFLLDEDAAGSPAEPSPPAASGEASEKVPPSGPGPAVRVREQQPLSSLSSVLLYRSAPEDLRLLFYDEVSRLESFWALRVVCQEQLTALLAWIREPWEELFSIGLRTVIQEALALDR
In short: as §1

Measured: binding result

B1: LZTR1 R810W-FLAG (other, human, UniProt Q8N653 1-840, looked up)
chain: MAGPGSTGGQIGAAALAGGARSKVAPSVDFDHSCSDSVEYLTLNFGPFETVHRWRRLPPCDEFVGARRSKHTVVAYKDAIYVFGGDNGKTMLNDLLRFDVKDCSWCRAFTTGTPPAPRYHHSAVVYGSSMFVFGGYTGDIYSNSNLKNKNDLFEYKFATGQWTEWKIEGRLPVARSAHGATVYSDKLWIFAGYDGNARLNDMWTIGLQDRELTCWEEVAQSGEIPPSCCNFPVAVCRDKMFVFSGQSGAKITNNLFQFEFKDKTWTRIPTEHLLRGSPPPPQRRYGHTMVAFDRHLYVFGGAADNTLPNELHCYDVDFQTWEVVQPSSDSEVGGAEVPERACASEEVPTLTYEERVGFKKSRDVFGLDFGTTSAKQPTQPASELPSGRLFHAAAVISDAMYIFGGTVDNNIRSGEMYRFQFSCYPKCTLHEDYGRLWESRQFCDVEFVLGEKEECVQGHVAIVTARSRWLRRKITQARERLAQKLEQEAAPVPREAPGVAAGGARPPLLHVAIREAEARPFEVLMQFLYTDKIKYPRKGHVEDVLLIMDVYKLALSFQLCRLEQLCRQYIEASVDLQNVLVVCESAARLQLSQLKEHCLNFVVKESHFNQVIMMKEFERLSSPLIVEIVRRKQQPPPRTPLDQPVDIGTSLIQDMKAYLEGAGAEFCDITLLLDGHPRPAHKAILAARSSYFEAMFRSFMPEDGQVNISIGEMVPSRQAFESMLRYIYYGEVNMPPEDSLYLFAAPYYYGFYNNRLQAYCKQNLEMNVTVQNVLQILEAADKTQALDMKRHCLHIIVHQFTKVSKLPTLWSLSQQLLLDIIDSLASHISDKQCAELGADI
notes: Stably expressed in U87 cells by lentivirus; also called LZTR1-FLAG-R810W; LZTR1 RW; not shown: FLAG tag
binds: all assays above
